One may read the Kd as the free concentration of one partner at which half of the binding sites on the other are occupied at equilibrium, for simple one-to-one binding. A low value points to tighter binding.

What all share (conditions): both partners purified
The target in experiment [1] is T1, talin1 R7R8 (mouse, UniProt P26039 1357-1659).
T1 construct: talin1 rod domains R7R8, mouse, UniProt P26039, residues 1357-1659; Expressed from pET151; His-tag removed with AcTEV protease; 15N-labelled for NMR; also called talin R7R8
T1 sequence (P26039 1357-1659): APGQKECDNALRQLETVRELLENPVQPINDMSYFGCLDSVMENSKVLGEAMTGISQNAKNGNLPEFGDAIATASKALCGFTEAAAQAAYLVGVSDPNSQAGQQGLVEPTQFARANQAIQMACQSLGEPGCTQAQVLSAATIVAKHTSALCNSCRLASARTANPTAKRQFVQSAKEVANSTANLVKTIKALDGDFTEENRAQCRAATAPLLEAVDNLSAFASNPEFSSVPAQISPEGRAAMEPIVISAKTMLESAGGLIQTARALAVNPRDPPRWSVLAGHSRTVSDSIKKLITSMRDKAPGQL
Briefly: fluorescence polarisation; dye-labelled peptide against a twofold serial dilution of the protein in PBS (10 mM Na2HPO4, 1.8 mM KH2PO4, pH 7.4, 137 mM NaCl, 2.7 mM KCl), 25°C; one-site total binding fit; triplicate.

Experiment [2] addresses T2, SHANK1 PDZ domain (mouse, UniProt D3YZU1 654-762).
T2 construct: SHANK1 PDZ domain, mouse, UniProt D3YZU1, residues 654-762; Expressed from pET151; His-tag removed with AcTEV protease; 15N-labelled for NMR
T2 sequence (looked up): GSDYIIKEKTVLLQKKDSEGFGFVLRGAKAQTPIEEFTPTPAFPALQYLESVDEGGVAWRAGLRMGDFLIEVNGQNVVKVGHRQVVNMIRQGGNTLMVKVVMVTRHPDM
The description is as above.

In experiment [3] the target is T3, SHANK2 PDZ domain (mouse, UniProt Q80Z38 247-340).
T3 construct: SHANK2 PDZ domain, mouse, UniProt Q80Z38, residues 247-340; Expressed from pET151; His-tag removed with AcTEV protease; 15N-labelled for NMR
T3 sequence (looked up): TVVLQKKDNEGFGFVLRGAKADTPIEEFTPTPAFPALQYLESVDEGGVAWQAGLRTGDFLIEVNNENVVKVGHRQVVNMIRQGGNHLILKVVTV
The experiment is described as above.

The next experiment has as its target T4, SHANK3 PDZ domain (mouse, UniProt Q4ACU6 570-664).
T4 construct: SHANK3 PDZ domain, mouse, UniProt Q4ACU6, residues 570-664; Expressed from pET151; His-tag removed with AcTEV protease
T4 sequence (looked up): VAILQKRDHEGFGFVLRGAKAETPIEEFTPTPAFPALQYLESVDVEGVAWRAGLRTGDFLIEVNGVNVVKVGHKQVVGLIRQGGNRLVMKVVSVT
Described as above.

The target of experiment [4] is T5, PSD-95 PDZ2 domain (human, UniProt P78352 155-249).
T5 construct: PSD-95 (postsynaptic density protein 95) PDZ2, human, UniProt P78352, residues 155-249; codon optimised synthetic gene; Expressed from pET151; His-tag removed with AcTEV protease; 15N-labelled for NMR; also called PDZ2 of PSD-95
T5 sequence (P78352 155-249): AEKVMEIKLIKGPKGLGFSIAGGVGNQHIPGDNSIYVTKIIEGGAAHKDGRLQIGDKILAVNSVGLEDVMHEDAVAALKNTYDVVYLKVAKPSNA
Described as above.

Experiment [5] addresses T6, PSD-95 PDZ3 domain (human, UniProt P78352 302-402).
T6 construct: PSD-95 (postsynaptic density protein 95) PDZ3, human, UniProt P78352, residues 302-402; codon optimised synthetic gene; Expressed from pET151; His-tag removed with AcTEV protease; 15N-labelled for NMR; also called PDZ3 of PSD-95
Described as above.

In experiment [6] the target is T2, SHANK1 PDZ domain. Briefly: NMR titration; 15N-HSQC of 15N-labelled protein at 150 µM with peptide added (1:0.5 to 1:5 molar ratios); 12 mM NaH2PO4, 6 mM Na2HPO4, pH 6.5, 50 mM NaCl, 2 mM DTT, 5% D2O, 298K.
The target in experiment [7] is T3, SHANK2 PDZ domain. The description is as above.
Experiment [8] deals with T5, PSD-95 PDZ2 domain. The experiment is described as above.
Experiment [9] has as its target T6, PSD-95 PDZ3 domain. Described as above.
Experiment [10] has as its target T1, talin1 R7R8. Described as above.
Another experiment addresses T7, talin1 R8 (mouse, UniProt P26039 1461-1580).
T7 construct: talin1 rod domain R8, mouse, UniProt P26039, residues 1461-1580; Expressed from pET151; His-tag removed with AcTEV protease; 15N-labelled for NMR; also called talin R8; R8 rod domain of talin
The experiment is described as above.

Where “and” joins values, the source holds several entries; their conditions need not be identical. Equal entries are not always repeated. Where no end group is shown, it is not given here. maleimide‑fluorescein = Maleimide-fluorescein dye, coupled to a cysteine thiol

T6 sequence (P78352 302-402): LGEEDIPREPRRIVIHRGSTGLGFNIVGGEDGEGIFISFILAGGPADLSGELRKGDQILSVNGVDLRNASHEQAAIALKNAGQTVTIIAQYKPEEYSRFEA
T7 sequence (P26039 1461-1580): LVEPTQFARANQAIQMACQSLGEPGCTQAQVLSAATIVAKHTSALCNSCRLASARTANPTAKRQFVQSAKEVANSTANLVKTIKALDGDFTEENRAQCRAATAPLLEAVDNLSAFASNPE

B1: CDKL5^213-234 peptide, dye-labelled for FP (peptide)
peptide: C(maleimide‑fluorescein)GESEIDQLFTIQKVLGPLPSEQ
notes: single non-native N-terminal cysteine for coupling the dye; source: synthetic peptide (GLBiochem, Shanghai)
As for B1, the “fold weaker affinity than CDK1^206-223 with talin1 R7R8” value in the experiment with talin1 R7R8 [1] worked out at 2.5 fold.

B2: CDKL5-1^941-960 peptide, fluorescein-labelled (peptide)
peptide: C(maleimide‑fluorescein)YNRTNRSRMPNLNDLKETAL
notes: single non-native N-terminal cysteine for coupling the dye; ends in -ETAL (957-960); also called CDKL5-1 C-terminal tail peptide; CDKL5 isoform 1 C-terminus; source: synthetic peptide (GLBiochem, Shanghai)
On to B2, for which the Kd is 8.5 µM and 7.6 µM with SHANK1 PDZ domain [2]; 5.2 µM in the experiment with SHANK2 PDZ domain [3]; 8.6 µM in the experiment with SHANK3 PDZ domain; 31.3 µM with PSD-95 PDZ2 domain [4]; 40.7 µM in the experiment with PSD-95 PDZ3 domain [5].

B3: CDKL5-1^941-960 peptide, unlabelled (peptide)
peptide: CYNRTNRSRMPNLNDLKETAL
notes: single non-native N-terminal cysteine with which the synthetic peptides were designed; ends in -ETAL (957-960); Used unlabelled in NMR; also called CDKL5-1 C-terminal tail peptide; CDKL5-1 peptide; source: synthetic peptide (GLBiochem, Shanghai)
Take B3: the binding result with SHANK1 PDZ domain [6], in the experiment with SHANK2 PDZ domain [7], with PSD-95 PDZ2 domain [8] and with PSD-95 PDZ3 domain [9] was “binds” in each case.

B4: CDKL5^213-234 peptide (NMR) (peptide)
peptide: CGESEIDQLFTIQKVLGPLPSEQ
notes: single non-native N-terminal cysteine with which the synthetic peptides were designed; source: synthetic peptide (GLBiochem, Shanghai)
Regarding B4, the binding result with talin1 R7R8 [10] and with talin1 R8 was “binds” in each case.

The values are drawn from publication doi:10.1101/2025.08.27.672337, “Cyclin-dependent kinase-like 5 (CDKL5) binds to talin and is anchored at the postsynaptic density via direct interaction with PDZ domains” (bioRxiv, 2025).
